Data published in publication PMC3976318.

Experiments:
[1] = molecular target: HA-MC4R (wild-type melanocortin 4 receptor, 3x HA tagged) (human) (UniProt P32245)
[2] = molecular target: HA-MC4R G34A (novel rare variant, 101G>C) (human) (UniProt P32245)

α-MSH EC50 for cAMP production (cAMP immunoassay dose-response, HEK cells stably expressing the receptor, three independent immunoassays) [1]: 0.0411 µM | α-MSH EC50 for cAMP production (cAMP immunoassay dose-response, HEK cells stably expressing the receptor, three independent immunoassays) [2]: 0.043 µM
Substance: α-melanocyte stimulating hormone (peptide)
